Measured values: patent US20230054634A1 (INSTYTUT BIOLOGII DO WIADCZALNEJ IM MARCELEGO NENCKIEGO …, published 2023)
Where no end group is shown, it is not given here. The star is where a group is joined. Biotin = O=C1N[C@H]2[C@H](CS[C@H]2CCCCC(=O)*)N1

B1: G7 variant (A16) (peptide)
peptide: KQPRTYQKLSYLDFQYQLD
notes: ELISA as for the biotin-labelled peptides; also called W2
B2: G7 variant (A12) (peptide)
peptide: YQKLSYLDFQYALD
notes: ELISA as for the biotin-labelled peptides; also called Al2
B3: G7 variant (A13) (peptide)
peptide: YQKLSYLDFQYQAD
notes: ELISA as for the biotin-labelled peptides; also called Al3
B4: G7 variant (A14) (peptide)
peptide: YQKLSYLDFQYQLA
notes: ELISA as for the biotin-labelled peptides
B5: G7 variant (A11) (peptide)
peptide: YQKLSYLDFQAQLD
notes: as for B4
B6: G7K2 (peptide)
peptide: YKKLSYLDFQYQLD
notes: also called G7 variant with lysine in position 2
B7: G7 C-terminal (peptide)
peptide: Biotin-DFQYQLD
notes: also called C-terminal (DFQYQLD); short variant of G7
B8: G7 N-terminal (peptide)
peptide: Biotin-YQKLSYL
notes: also called N-terminal (YQKLSYL); short variant of G7
B9: G7 central portion (peptide)
peptide: Biotin-LSYLDFQ
notes: also called central (LSYLDFQ); short variant of G7

Molecular target: T1, recombinant human GM-CSF protein, Myc-tagged/His-tagged (human, UniProt P04141 18-144)
T1 construct: also called Granulocyte Macrophage Colony Stimulating Factor; CSF2; not shown: Myc tag and His tag from the expression vector
Assay: ELISA, GM-CSF coated
Procedure: (§1) Next, unbound proteins were washed out, then the wells were blocked with 5% BSA (bovine serum albumin) in saline and peptides labeled with N-terminal biotin (purchased from GenScript) were added. […] HRP catalyzes the conversion of chromogenic substrates into colored products. The amount of bound peptide was proportional to the amount of the colored product, and it was measured using a spectrophotometer.

T1 sequence (P04141 18-144): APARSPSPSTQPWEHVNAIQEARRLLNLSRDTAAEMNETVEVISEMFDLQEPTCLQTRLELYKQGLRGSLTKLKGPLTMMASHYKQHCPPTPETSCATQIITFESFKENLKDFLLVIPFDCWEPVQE

Question: Does B1 bind?
Answer: Result: binds

Question: Does YQKLSYLDFAYQLD [G7 variant (A10)] bind?
Answer: Result: binds

Question: Does B2 bind?
Answer: Result: binds

Question: Does B3 bind?
Answer: Result: binds

Question: Does B4 bind?
Answer: Result: binds

Question: Does B5 bind?
Answer: Result: binds

Molecular target: T1, recombinant human GM-CSF protein, …
Assay: ELISA on GM-CSF, relative to G7

Question: How did the Relative binding turn out when YQKLSYLDFQYQKDK [G7K15] was run?
Answer: Its Relative binding is 60.

Question: How did the Relative binding turn out when KYQKLSYLDFQYQLD (also called G7K-1 variant) [G7K-1] was run?
Answer: Its Relative binding is 95.

Question: How did the Relative binding turn out when YQKLSYLDFQKQLD [G7K11] was run?
Answer: Its Relative binding is 108.

Question: For YQKLSYLDFQYQKD [G7K13], which Relative binding is on record?
Answer: The Relative binding was 108.

Question: With B6 as the binder, how does the Relative binding read?
Answer: The Relative binding was 2.

Molecular target: T1, recombinant human GM-CSF protein, …
Assay: ELISA, GM-CSF coated, biotin-labelled peptide
Procedure: as §1
(SEQ ID NO: 1). […] These peptides, labeled with a N-terminal biotin, were purchased from GenScript.

Question: Does B7 bind?
Answer: Result: no binding

Question: Does B8 bind?
Answer: Result: no binding

Question: Does B9 bind?
Answer: Result: no binding

Molecular target: T1, recombinant human GM-CSF protein, …
Assay: SPR (BIAcore 3000), GM-CSF immobilised, peptide injected

Question: Does Biotin-ADVRILNWSSWSEA [G15 peptide] bind?
Answer: Result: binds

Question: Does VLGFLFKRFLRIQR [G21 peptide] bind?
Answer: Result: binds

Question: Does RFLRIQRLFPPVPQ [G22 peptide] bind?
Answer: Result: binds

Question: Does RWKQPRTYQKLSYL [G6 peptide] bind?
Answer: Result: binds

Question: Does NTTHCLVRWKQPRT [G5 peptide] bind?
Answer: Result: binds

Question: Does Biotin-WSSWSEAIEFGSDD [G16 peptide] bind?
Answer: Result: binds

Question: Does Biotin-IERFNPPSNVTVRC [G3 peptide] bind?
Answer: Result: binds

Molecular target: T1, recombinant human GM-CSF protein, …
Assay: ELISA, GM-CSF coated, biotin-labelled peptide, anti-biotin detection
Procedure: as §1

Question: Does Biotin-NHEVEDEIIWEEFT [G25 peptide] bind?
Answer: Result: binds

Question: Does Biotin-HSVKIRAADVRILN [G14 peptide] bind?
Answer: Result: binds
